One molecule from patent US20140186294A1, “PHAGOCYTIC ACTIVITY AS A MARKER OF SYNUCLEINOPATHIC DISEASE” (ELAN PHARMACEUTICALS, INC., priority 2010, published 2014) can be followed below.

Assay [1] deals with H4 neuronal cells. Briefly: Phagocytic activity screening assay, H4 neuronal cells. The settings on record: H4 neuronal cells (lack an IL-4 receptor). Format: cell-based, human. The text has this: The screening and diagnostic assays employ cells with phagocytic activity, sometimes referred to as phagocytic cells. The cells can be human, or other mammalian, particular rodent or mouse. The cells can be obtained from a subject with synucleinopathic disease (usually a human) or a transgenic animal model of disease (e.g., a mouse). The cells can also be a cell line transformed to express an alpha synuclein gene. The cells include microglial cells or peripheral macrophages or polymorphonuclear cells or other phagocytic cells. Microglia can be obtained by biopsy or differentiating or trans-differentiation of embryonic stems cells, bone marrow, induced pluripotent or other stem or pluripotent cell sources from a subject or transgenic animal model. Such phagocytic cells have higher intracellular levels of alpha synuclein that control cells from an undiseased individual. […]
The components of a screening assay include cells with phagocytic activity, a test agent being screened and an entity that can be phagocytosed. […] Methods for detection of phagocytosis can include any fluorescent based platform (e.g., flow cytometry, microscopy, array scan, or a Tr-fret, fluorescent plate reader) enzymatic, or colorimetric readout. […]

The subject of assay [2] is peripheral macrophages. In words: Phagocytic activity screening assay, peripheral macrophages. The format is cell-based. Here is the method: (§1) The components of a screening assay include cells with phagocytic activity, a test agent being screened and an entity that can be phagocytosed. Such an entity can be inert particles, such as latex beads, preferably of size 4-10 microns. The entity can also be apoptotic cells, such as Jurkat cells). Cells and inert entities are phagocytosed by different mechanisms, the former being receptor dependent. Usually the cells are contacted with the test agent first and incubated for a period (e.g., 1-48 hr) before adding the entity to be phagocytosis. Phagocytosis can be followed by light microscopy or flow cytometry among other methods detecting uptake of the entity being phagocytosed into the phagocytic cell. Methods for detection of phagocytosis can include any fluorescent based platform (e.g., flow cytometry, microscopy, array scan, or a Tr-fret, fluorescent plate reader) enzymatic, or colorimetric readout.
(§2) The screening assay can be performed on different types of phagocytic cells in parallel or sequentially. Some agents stimulate phagocytic activity in all or multiple cell types. Other agents may stimulate phagocytic activity in some cells type but not all.

Assay [3] concerns SNARE complex. In words: SNARE complex components in lysates of IL-4 treated microglia. Format: cell-based, mouse. The settings on record: IL-4 24 hr; wild type and synuclein OE cells. Here is the method:
To determine if IL-4 worked in part by altering SNARE or vesicle movement microglia from synuclein genomic mice were treated with IL-4 for 24 hr and lysates were probed for components of the SNARE complex. […] After addition of beads we saw induction of SNARE complexes and these were enhanced following IL-4 treatment.

The test system of assay [4] is synuclein mRNA. Briefly: Synuclein mRNA (qPCR) in IL-4 treated line 26/synuclein null microglia. The format is cell-based, mouse. Here is the method: (§3) FIG. 12: Microarray analysis of microglia isolated from three human donors were stimulated with IL-4 for 24 hours and microarray experiment performed and results were confirmed by qPCR. qPCR was also performed on microglia isolated from IL-4 treated line 26/synuclein null pups.
(§4) Human microglia were treated with IL-4 and synuclein transcript levels were measured by microarray and qPCR. Following IL-4 treatment synuclein levels were decreased by 50% in the three donors tested (FIG. 12). […] Microglia from synuclein genomic mice were treated with IL-4 for 24 hours, and while synuclein mRNA levels were decreased, protein levels were unaffected. Synuclein is turned over slowly, therefore 24 hours maybe too soon to see affects. To assess this microglia were stimulated with IL-4 for 48 hr at which time a 50% reduction in synuclein protein levels was observed. […] This may point to a direct effect of IL-4 signaling on the synuclein promoter.

Assay [5] deals with synuclein protein. In words: Synuclein protein levels in IL-4 treated microglia from synuclein genomic mice. Format: cell-based, mouse. Here is the method:
as §4

Assay [6] deals with microglial cells. In words: Phagocytic activity screening assay, microglial cells. Format: cell-based. As for the experimental part: as §1, §2
Assay [7] has as its system synuclein overexpressing microglia. Briefly: Bead phagocytosis (phagocytic index) of IL-4 treated microglia from synuclein genomic lines 3, 26, 422. The conditions noted are these: IL-4 24 hours, then beads 90 minutes. The format is cell-based, mouse. As for the experimental part:
FIG. 13: Wild type or synuclein overexpressing microglia isolated from line 3, 26, or 422 littermate pups cells were treated for 24 hours with IL-4 and the fed beads for 90 minutes and phagocytic index determined.
To investigate the role of endogenous synuclein on microglia function, we utilized a transgenic mouse model in which wild type or the E46K mutated form of human synuclein was overexpressed from a human bacterial artificial chromosome (bac). The bac construct contained the synuclein promoter and upstream sequences (45 kbp), as well as downstream 3′ sequences ([…]). Three animal lines of interest were identified; line 422 expresses wild type synuclein and two additional lines, line 26 and line 3, express the mutant E46K form. Altered microglia function associated with over expression of human synuclein was assessed in cells isolated from line 26 P1-P3 pups due in part to the high synuclein expression observed in this line. […] Significant overexpression of human synuclein in the murine microglia allowed us to assess the consequence of elevated synuclein levels on microglia function. […] Although the requirement for receptor engagement differs, both targets require activation of intracellular signaling, actin rearrangement, and mobilization of membrane to the phagocytic cup. […]

Assay [8] concerns synuclein mRNA. In words: Synuclein transcript levels in IL-4 treated human microglia (microarray, qPCR). The format is cell-based. The conditions noted are these: IL-4 24 hours; microglia from three human donors. Here is the method:
as §3, §4

Entries after “also recorded” stand apart in the source; their conditions may differ.

B1: IL-4: interleukin IL-4 (Swiss Prot P05112), cytokine used to treat microglia (protein, UniProt P05112 25-153, looked up)
Interleukin-4: HKCDITLQEIIKTLNSLTEQKTLCTELTVTDIFAASKNTTEKETFCRAATVLRQFYSHHEKDTRCLGATAQQFHRHKQLIRFLKRLDRNLWGLAGLNSCPVKEANQSTLENFLERLKTIMREKYSKCSS
On to B1, for which the stimulating phagocytic activity entry is recorded as “not in H4 neuronal cells” in assay [1], “effective” in assay [2] and “effective” in assay [6]. Also, the “SNARE complex components in lysates” value in assay [3] was “increased monomer SNAP23 Syntaxin4, and SNAP23 snare complex”. The “reduction in synuclein mRNA levels” value turned out to be 50% in assay [4] (IL-4 treated line 26/synuclein null pup microglia, qPCR) and 50% in assay [8]. In assay [4] (line 26/synuclein null genomic microglia, IL-4), the “synuclein mRNA levels” value is “reduced synuclein mRNA levels”. The synuclein protein levels entry in assay [5] (IL-4 for 24 hours) is reported as “unaffected; also recorded: did not decrease synuclein protein”. For the same molecule, the “reduction in synuclein protein levels” value in assay [5] (IL-4 for 48 hr) turned out to be 50%. For the same molecule, the “phagocytosis (phagocytic index)” value in assay [7] was “rescue the phagocytic defect”; in assay [7] (listed as 11-4), “restored phagocytosis”.
